Assay results taken from patent US20220363770A1 (Amgen, published 2022).
Residue numbers refer to the chain shown, from its start.

T1: human PAC1 receptor (human, UniProt P41586 24-468)
T1 sequence: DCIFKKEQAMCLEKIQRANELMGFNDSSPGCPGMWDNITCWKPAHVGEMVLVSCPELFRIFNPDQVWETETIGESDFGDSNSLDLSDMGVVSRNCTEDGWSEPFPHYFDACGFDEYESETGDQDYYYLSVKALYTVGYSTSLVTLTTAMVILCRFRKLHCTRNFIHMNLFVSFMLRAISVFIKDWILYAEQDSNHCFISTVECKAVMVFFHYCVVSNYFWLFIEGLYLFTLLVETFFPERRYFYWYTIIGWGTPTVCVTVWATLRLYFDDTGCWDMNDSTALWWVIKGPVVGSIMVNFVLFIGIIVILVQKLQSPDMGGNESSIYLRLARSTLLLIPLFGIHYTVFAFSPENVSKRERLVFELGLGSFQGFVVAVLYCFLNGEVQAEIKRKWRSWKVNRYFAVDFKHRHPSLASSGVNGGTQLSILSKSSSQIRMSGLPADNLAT

B1: iPS:454891 (bispecific antibody, human IgG1, kappa, lambda, N297G)
light 1: QSVLTQPPSVSAAPGQKVTISCSGSSSNIGNNYVSWYQQLPGTAPKLLIYDNNKRPSGIPDRFSGSKSGTSTTLGITGLQTGDEADYYCGTWDSRLSAVVFGGGTKLTVLGQPKAAPSVTLFPPSSEELQANKATLVCLISDFYPGAVTVAWKADSSPVKAGVETTTPSKQSNNKYAAKSYLSLTPEQWKSHRSYSCQVTHEGSTVEKTVAPTECS
heavy 1: QVQLVESGGGVVQPGRSLRLSCAASGFTFSSFGMHWVRQAPGKGLEWVAVISFDGSIKYSVDSVKGRFTISRDNSKNTLFLQMNSLRAEDTAVYYCARDRLNYYRSFGYYGYHYYGMAVWGQGTTVTVSSASTKGPSVFPLAPSSKSTSGGTAALGCLVKDYFPEPVTVSWNSGALTSGVHTFPAVLQSSGLYSLESVVTVPSSSLGTQTYICNVNHKPSNTKVDKKVEPKSCDKTHTCPPCPAPELLGGPSVFLFPPKPKDTLMISRTPEVTCVVVDVSHEDPEVKFNWYVDGVEVHNAKTKPCEEQYGSTYRCVSVLTVLHQDWLNGKEYKCKVSNKALPAPIEKTISKAKGQPREPQVYTLPPSRKKMTKNQVSLTCLVKGFYPSDIAVEWESNGQPENNYKTTPPVLKSDGSFFLYSKLTVDKSRWQQGNVFSCSVMHEALHNHYTQKSLSLSPGK
light 2: EIVLTQSPATLSLSPGERATLSCRASQSVGRSLHWYQQKPGQAPRLLIKYASQSLSGIPARFSGSGSGTDFTLTISSLEPEDFAVYYCHQSSRLPFTFGPGTKVDIKRTVAAPSVFIFPPSDEQLKSGTASVVCLLNNFYPREAKVQWKVDNALQSGNSQESVTEQDSKDSTYSLESTLTLSKADYEKHKVYACEVTHQGLSSPVTKSFNRGEC
heavy 2: not shown
B2: iPS:454901 (bispecific antibody, human IgG1, kappa, lambda, N297G)
light 1: B1 light 1
heavy 1: B1 heavy 1
light 2: B1 light 2 with Q27K, S28A, R31W
heavy 2: not shown
B3: iPS:454917 (bispecific antibody, human IgG1, kappa, lambda, N297G)
light 1: B1 light 1
heavy 1: B1 heavy 1
light 2: B1 light 2 with Q27K, R31W
heavy 2: not shown
B4: iPS:454911 (bispecific antibody, human IgG1, kappa, lambda, N297G)
light 1: B1 light 1
heavy 1: B1 heavy 1
light 2: B1 light 2 with Q27K, R31W
heavy 2: not shown
B5: iPS:454913 (bispecific antibody, human IgG1, kappa, lambda, N297G)
light 1: B1 light 1
heavy 1: B1 heavy 1
light 2: B1 light 2 with Q27K, R31W
heavy 2: not shown
B6: iPS:454557 (5601) (bispecific antibody, human IgG1, kappa, lambda, N297G)
light 1: B1 light 1 with S26Y, N31R, N32Y, Y33S, T72A
heavy 1: B1 heavy 1 with R105E, F107S, G111H, H113K, K370E
light 2: B1 light 2 with Q27K
heavy 2: not shown
B7: iPS:454895 (bispecific antibody, human IgG1, kappa, lambda, N297G)
light 1: B1 light 1
heavy 1: B1 heavy 1
light 2: B1 light 2
heavy 2: not shown
B8: iPS:454919 (bispecific antibody, human IgG1, kappa, lambda, N297G)
light 1: B1 light 1
heavy 1: B1 heavy 1
light 2: B1 light 2 with Q27K, R31Y
heavy 2: not shown
B9: iPS:571015 (5603) (bispecific antibody, human IgG1, kappa, lambda, N297G)
light 1: B1 light 1 with S26Y, N31R, N32Y, Y33S, T72A
heavy 1: B1 heavy 1 with R105E, F107S, G111H, H113K, K369E
light 2: B1 light 2 with Q27K
heavy 2: not shown
B10: iPS:454899 (bispecific antibody, human IgG1, kappa, lambda, N297G)
light 1: B1 light 1
heavy 1: B1 heavy 1
light 2: B1 light 2 with Q27K
heavy 2: not shown
B11: iPS:454915 (bispecific antibody, human IgG1, kappa, lambda, N297G)
light 1: B1 light 1
heavy 1: B1 heavy 1
light 2: B1 light 2 with Q27K, R31W
heavy 2: not shown
B12: iPS:454909 (bispecific antibody, human IgG1, kappa, lambda, N297G)
light 1: B1 light 1
heavy 1: B1 heavy 1
light 2: B1 light 2 with Q27K, R31W
heavy 2: not shown
B13: iPS:454893 (bispecific antibody, human IgG1, kappa, lambda, N297G)
light 1: B1 light 1
heavy 1: B1 heavy 1
light 2: B1 light 2
heavy 2: not shown
B14: iPS:571009 (5602) (bispecific antibody, human IgG1, kappa, lambda, N297G)
light 1: B1 light 1 with S26Y, N31R, N32Y, Y33S, T72A
heavy 1: B1 heavy 1 with R105E, F107S, G111H, H113K, K370E
light 2: B1 light 2 with Q27K
heavy 2: not shown
B15: iPS:454903 (bispecific antibody, human IgG1, kappa, lambda, N297G)
light 1: B1 light 1
heavy 1: B1 heavy 1
light 2: B1 light 2 with Q27K, R31W
heavy 2: not shown
B16: iPS:454907 (bispecific antibody, human IgG1, kappa, lambda, N297G)
light 1: B1 light 1
heavy 1: B1 heavy 1
light 2: B1 light 2 with Q27K, R31W
heavy 2: not shown
B17: iPS:454897 (bispecific antibody, human IgG1, kappa, lambda, N297G)
light 1: B1 light 1
heavy 1: B1 heavy 1
light 2: B1 light 2 with Q27K
heavy 2: not shown
B18: iPS:454905 (bispecific antibody, human IgG1, kappa, lambda, N297G)
light 1: B1 light 1
heavy 1: B1 heavy 1
light 2: B1 light 2 with Q27K, R31W
heavy 2: not shown

Molecular target: human CGRP receptor (human, UniProt Q16602 23-461; O60894 27-148)
Experiment: cell-based or functional assay

human CGRP receptor, sequence (Q16602 23-461 limits assumed, chain 1 of 2): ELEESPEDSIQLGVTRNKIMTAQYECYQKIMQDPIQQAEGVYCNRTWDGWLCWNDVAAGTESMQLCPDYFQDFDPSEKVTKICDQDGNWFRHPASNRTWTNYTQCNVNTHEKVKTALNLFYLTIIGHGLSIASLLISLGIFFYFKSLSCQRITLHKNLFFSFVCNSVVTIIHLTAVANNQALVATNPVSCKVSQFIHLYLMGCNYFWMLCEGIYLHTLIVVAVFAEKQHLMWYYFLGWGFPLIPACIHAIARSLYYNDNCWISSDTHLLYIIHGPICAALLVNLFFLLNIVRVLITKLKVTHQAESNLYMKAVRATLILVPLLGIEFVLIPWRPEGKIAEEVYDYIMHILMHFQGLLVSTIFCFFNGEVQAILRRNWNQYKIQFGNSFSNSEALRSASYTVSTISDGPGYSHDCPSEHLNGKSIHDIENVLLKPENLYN
human CGRP receptor, sequence (O60894 27-148 limits assumed, chain 2 of 2): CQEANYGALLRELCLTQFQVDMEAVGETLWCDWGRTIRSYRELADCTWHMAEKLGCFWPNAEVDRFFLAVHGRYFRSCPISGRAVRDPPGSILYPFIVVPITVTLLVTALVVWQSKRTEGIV

Row | Binder | Fold-improvement over 4E4 Ab | IC50
1 | B1 | 0.6 fold | 0.9 nM
2 | B2 | 0.6 fold | 1.01 nM
3 | B3 | 0.4 fold | 1.34 nM
4 | B4 | 0.3 fold | 1.98 nM
5 | B5 | 0.3 fold | 2.11 nM
6 | B6 | 1.5 fold | 0.39 nM
7 | B7 | 0.4 fold | 1.41 nM
8 | B8 | 0.4 fold | 1.4 nM
9 | B9 | 1.2 fold | 0.47 nM
10 | B10 | 0.6 fold | 1.04 nM
11 | B11 | 0.4 fold | 1.25 nM
12 | B12 | 0.4 fold | 1.49 nM
13 | B13 | 0.4 fold | 1.35 nM
14 | B14 | 1.3 fold | 0.43 nM
15 | B15 | 0.5 fold | 1.16 nM
16 | B16 | 0.4 fold | 1.63 nM
17 | B17 | 0.5 fold | 1.14 nM
18 | B18 | 0.5 fold | 1.13 nM

Molecular target: T1, human PAC1 receptor
Experiment: cell-based or functional assay

Row | Binder | Fold-improvement over 29G4v22 Ab | IC50
19 | B1 | 9.5 fold | 0.68 nM
20 | B2 | 10.9 fold | 0.67 nM
21 | B3 | 11.4 fold | 0.61 nM
22 | B4 | 9.1 fold | 0.81 nM
23 | B5 | 5.2 fold | 1.33 nM
24 | B6 | 6.7 fold | 0.61 nM
25 | B7 | 9.4 fold | 0.69 nM
26 | B8 | 9.8 fold | 0.7 nM
27 | B9 | 5.5 fold | 0.74 nM
28 | B10 | 5.2 fold | 1.41 nM
29 | B11 | 10.5 fold | 0.66 nM
30 | B12 | 9.5 fold | 0.77 nM
31 | B13 | 7.4 fold | 0.87 nM
32 | B14 | 7.2 fold | 0.57 nM
33 | B15 | 10.2 fold | 0.72 nM
34 | B16 | 5.4 fold | 1.37 nM
35 | B17 | 6.2 fold | 1.04 nM
36 | B18 | 9.2 fold | 0.79 nM
